According to patent US20250353900A1 (HUMABS BIOMED, published 2025):

Tests used:
[1] = molecular target: HBV HBsAg of genotype C on engineered hepatitis D virus (hepatitis B virus genotype C); experiment: cell-based or functional assay
[2] = molecular target: HBV HBsAg of genotype A on engineered hepatitis D virus (hepatitis B virus genotype A); experiment: cell-based or functional assay
[3] = molecular target: T1, Human complement component C1q (human, UniProt P02745 23-245; P02746 28-253; P02747 29-245); experiment: BLI (Octet), IgG captured on anti-human Fab (CH1) sensors
T1 construct: also called human complement protein C1q

[4] = molecular target: T2, Recombinant human FcγRIIIa (V158) (human, UniProt P08637 17-208); experiment: BLI (Octet), His-tagged FcγR on anti-penta-His sensors, mAb cross-linked with anti-F(ab')2
T2 construct: also called FcγRIIIa allele V158

[5] = molecular target: T3, Recombinant human FcγRIIIa (F158) (human, UniProt P08637 17-208); experiment: as above
T3 construct: also called FcγRIIIa allele F158; FcγRIIAa allele F158

[6] = molecular target: T4, Recombinant human FcγRIIa (H131) (human, UniProt P12318 34-218); experiment: as above
T4 construct: also called FcγRIIa allele H131
T4 sequence (looked up): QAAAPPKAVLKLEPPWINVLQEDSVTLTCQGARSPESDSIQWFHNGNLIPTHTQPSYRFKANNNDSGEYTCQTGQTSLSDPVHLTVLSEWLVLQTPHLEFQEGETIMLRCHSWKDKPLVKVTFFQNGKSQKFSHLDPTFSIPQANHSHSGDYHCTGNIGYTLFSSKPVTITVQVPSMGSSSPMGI

T3 sequence (P08637 17-208 limits assumed): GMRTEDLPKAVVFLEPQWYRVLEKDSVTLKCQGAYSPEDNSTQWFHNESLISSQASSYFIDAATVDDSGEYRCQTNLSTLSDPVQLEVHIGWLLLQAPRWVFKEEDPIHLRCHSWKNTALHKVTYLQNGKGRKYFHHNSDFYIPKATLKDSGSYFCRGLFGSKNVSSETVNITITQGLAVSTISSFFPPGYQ
T1 sequence (P02745 23-245 limits assumed, chain 1 of 3): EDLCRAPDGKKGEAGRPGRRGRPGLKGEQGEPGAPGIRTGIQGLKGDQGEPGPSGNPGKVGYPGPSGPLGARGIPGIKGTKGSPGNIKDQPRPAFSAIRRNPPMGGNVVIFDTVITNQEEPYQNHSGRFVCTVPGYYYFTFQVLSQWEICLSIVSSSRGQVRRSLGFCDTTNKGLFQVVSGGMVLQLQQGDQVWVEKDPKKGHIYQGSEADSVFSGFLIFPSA
T1 sequence (P02746 28-253 limits assumed, chain 2 of 3): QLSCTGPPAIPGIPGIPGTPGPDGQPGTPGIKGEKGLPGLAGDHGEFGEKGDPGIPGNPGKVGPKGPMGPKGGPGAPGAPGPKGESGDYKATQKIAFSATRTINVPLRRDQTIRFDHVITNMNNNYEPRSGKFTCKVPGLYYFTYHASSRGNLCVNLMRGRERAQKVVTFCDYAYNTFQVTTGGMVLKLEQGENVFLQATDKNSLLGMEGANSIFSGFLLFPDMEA
T1 sequence (P02747 29-245 limits assumed, chain 3 of 3): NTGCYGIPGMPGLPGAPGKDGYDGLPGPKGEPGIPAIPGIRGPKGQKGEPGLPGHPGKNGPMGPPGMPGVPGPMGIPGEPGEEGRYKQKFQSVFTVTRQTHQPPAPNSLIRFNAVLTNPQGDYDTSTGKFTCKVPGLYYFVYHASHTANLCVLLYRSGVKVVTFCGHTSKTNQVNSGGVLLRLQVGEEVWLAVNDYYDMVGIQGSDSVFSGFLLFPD
T2 sequence (P08637 17-208 F176V limits assumed): as the sequence (P08637 17-208 limits assumed) above, with F160V counted along it

B1: HBC34-V35-MLNS-GAALIE (antibody, human IgG1, lambda)
heavy: ELQLVESGGGWVQPGGSQRLSCAASGRIFRSFYMSWVRQAPGKGLEWVATINQDGSEKLYVDSVKGRFTISRDNAKNSLFLQMNNLRVEDTAVYYCAAWSGNSGGMDVWGQGTTVSVSSASTKGPSVFPLAPSSKSTSGGTAALGCLVKDYFPEPVTVSWNSGALTSGVHTFPAVLQSSGLYSLSSVVTVPSSSLGTQTYICNVNHKPSNTKVDKKVEPKSCDKTHTCPPCPAPELLAGPSVFLFPPKPKDTLMISRTPEVTCVVVDVSHEDPEVKFNWYVDGVEVHNAKTKPREEQYNSTYRVVSVLTVLHQDWLNGKEYKCKVSNKALPLPEEKTISKAKGQPREPQVYTLPPSRDELTKNQVSLTCLVKGFYPSDIAVEWESNGQPENNYKTTPPVLDSDGSFFLYSKLTVDKSRWQQGNVFSCSVLHEALHSHYTQKSLSLSPGK
light: SYELTQPPSVSVSPGQTVSIPCSGDKLGNKNVAWFQHKPGQSPVLVIYEVKYRPSGIPERFSGSNSGNTATLTISGTQAMDEAAYFCQTFDSTTVVFGGGTRLTVLGQPKAAPSVTLFPPSSEELQANKATLVCLISDFYPGAVTVAWKADSSPVKAGVETTTPSKQSNNKYAASSYLSLTPEQWKSHRSYSCQVTHEGSTVEKTVAPTECS
B1 was tested, and the “neutralization EC50, HDV engineered to express HBV HBsAg” value [1] was 0.92 ng/mL, the “neutralization EC50, HDV engineered to express HBV HBsAg” value [2] was 2.34 ng/mL and the binding result [3] was “no binding (tested: 3 µg/ml of purified human C1q)”. B1: binds [4]; binds [5]; binds [6].
